# Source: patent US20230063116A1 (Regeneron, published 2023)
# Like-named read-outs stand apart in the source and are kept apart here.
# T1: VEGF110 (hVEGF110, aa 207-318) (human, UniProt P15692 207-318)
# T1 sequence (looked up): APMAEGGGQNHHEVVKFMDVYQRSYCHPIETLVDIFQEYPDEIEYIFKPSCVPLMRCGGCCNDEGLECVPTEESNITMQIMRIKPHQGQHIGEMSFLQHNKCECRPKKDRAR
# B1: human VEGF165 (REGN110) (ligand)
# chain: APMAEGGGQNHHEVVKFMDVYQRSYCHPIETLVDIFQEYPDEIEYIFKPSCVPLMRCGGCCNDEGLECVPTEESNITMQIMRIKPHQGQHIGEMSFLQHNKCECRPKKDRARQENPCGPCSERRKHLFVQDPQTCKCSCKNTDSRCKARQLELNERTCRCDKPRR
# notes: It is treated here as the same molecule; also called hVEGF165; hVEGF165(M1-R191)
# B2: REGN3, full-length VEGF Trap (aflibercept) (Fc fusion, human, UniProt P17948 129-231, looked up, not shown: a dimerising Fc or GST)
# chain: SDTGRPFVEMYSEIPEIIHMTEGRELVIPCRVTSPNITVTLKKFPLDTLIPDGKRIIWDSRKGFIISNATYKEIGLLTCEATVNGHLYKTNYLTHRQTNTIIDVVLSPSHGIELSVGEKLVLNCTARTELNVGIDFNWEYPSSKHQHKKLVNRDLKTQSGSEMKKFLSTLTIDGVTRSDQGLYTCAASSGLMTKKNSTFVRVHEK
# notes: range 129-231;range 226-327; also called Eylea; VEFGR1d2-VEGFR2d3 VEGF Trap
# B3: VEGF121 (hVEGF121, aa 207-327) (ligand)
# chain: APMAEGGGQNHHEVVKFMDVYQRSYCHPIETLVDIFQEYPDEIEYIFKPSCVPLMRCGGCCNDEGLECVPTEESNITMQIMRIKPHQGQHIGEMSFLQHNKCECRPKKDRARQEKCDKPRR
# Key:
# [1] = target: chimeric VEGFR1 receptors on HEK293/D9/Flt-IL18Rα/Flt-IL18Rβ clone V3H9 cells (UniProt P17948); assay: cell-based or functional assay
# chimeric VEGFR1 receptors on HEK293/D9/Flt-IL18Rα/Flt-IL18Rβ clone V3H9 cells (UniProt P17948), sequence (P17948 other isoform, or with tags, fused parts or gaps mutant limits assumed, chain 1 of 2): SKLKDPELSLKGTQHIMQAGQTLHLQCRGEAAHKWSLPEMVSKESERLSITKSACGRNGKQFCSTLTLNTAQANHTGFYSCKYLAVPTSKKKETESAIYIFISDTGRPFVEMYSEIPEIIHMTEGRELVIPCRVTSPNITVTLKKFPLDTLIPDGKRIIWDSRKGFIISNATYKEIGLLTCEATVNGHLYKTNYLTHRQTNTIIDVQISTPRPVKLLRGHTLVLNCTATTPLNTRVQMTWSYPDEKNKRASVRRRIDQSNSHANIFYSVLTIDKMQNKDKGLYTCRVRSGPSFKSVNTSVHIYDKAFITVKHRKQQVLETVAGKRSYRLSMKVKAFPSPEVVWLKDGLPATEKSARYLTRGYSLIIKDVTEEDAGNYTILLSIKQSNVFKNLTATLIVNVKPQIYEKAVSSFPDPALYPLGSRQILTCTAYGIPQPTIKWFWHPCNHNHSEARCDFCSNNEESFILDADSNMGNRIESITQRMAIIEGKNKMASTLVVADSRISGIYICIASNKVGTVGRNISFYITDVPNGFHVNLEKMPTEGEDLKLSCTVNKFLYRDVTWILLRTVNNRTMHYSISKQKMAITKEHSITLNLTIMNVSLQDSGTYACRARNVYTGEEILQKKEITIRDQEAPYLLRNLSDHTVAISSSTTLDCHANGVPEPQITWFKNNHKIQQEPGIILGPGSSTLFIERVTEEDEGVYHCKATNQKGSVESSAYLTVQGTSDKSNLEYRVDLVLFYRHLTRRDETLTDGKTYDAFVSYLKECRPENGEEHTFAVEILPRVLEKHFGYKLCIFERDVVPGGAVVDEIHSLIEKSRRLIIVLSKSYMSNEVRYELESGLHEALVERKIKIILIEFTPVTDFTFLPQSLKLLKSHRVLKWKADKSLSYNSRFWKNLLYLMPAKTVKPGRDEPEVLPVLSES
# chimeric VEGFR1 receptors on HEK293/D9/Flt-IL18Rα/Flt-IL18Rβ clone V3H9 cells (UniProt P17948), sequence (P17948 other isoform, or with tags, fused parts or gaps mutant limits assumed, chain 2 of 2): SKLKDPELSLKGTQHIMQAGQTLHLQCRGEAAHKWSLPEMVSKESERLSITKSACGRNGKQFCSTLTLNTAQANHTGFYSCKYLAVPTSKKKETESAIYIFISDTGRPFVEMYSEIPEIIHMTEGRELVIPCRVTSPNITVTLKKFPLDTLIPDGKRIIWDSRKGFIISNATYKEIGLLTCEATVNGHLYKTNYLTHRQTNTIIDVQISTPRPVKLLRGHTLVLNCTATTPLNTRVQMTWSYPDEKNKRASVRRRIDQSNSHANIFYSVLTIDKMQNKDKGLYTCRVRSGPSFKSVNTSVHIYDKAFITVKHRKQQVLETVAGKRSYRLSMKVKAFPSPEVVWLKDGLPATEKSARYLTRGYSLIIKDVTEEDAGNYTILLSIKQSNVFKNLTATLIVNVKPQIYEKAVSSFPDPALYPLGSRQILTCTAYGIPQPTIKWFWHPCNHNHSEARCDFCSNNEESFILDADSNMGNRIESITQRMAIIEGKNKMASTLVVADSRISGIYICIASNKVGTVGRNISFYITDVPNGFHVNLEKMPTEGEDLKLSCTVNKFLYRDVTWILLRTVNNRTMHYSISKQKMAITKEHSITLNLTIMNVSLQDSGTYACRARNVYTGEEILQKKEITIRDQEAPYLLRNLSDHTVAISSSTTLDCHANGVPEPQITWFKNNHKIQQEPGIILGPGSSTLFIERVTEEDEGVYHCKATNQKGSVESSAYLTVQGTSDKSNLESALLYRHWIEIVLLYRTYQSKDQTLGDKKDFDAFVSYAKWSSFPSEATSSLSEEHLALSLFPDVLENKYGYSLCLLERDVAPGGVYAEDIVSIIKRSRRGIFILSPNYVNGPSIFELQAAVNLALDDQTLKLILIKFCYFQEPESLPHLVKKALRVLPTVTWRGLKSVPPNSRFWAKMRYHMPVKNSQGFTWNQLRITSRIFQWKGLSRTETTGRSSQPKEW
# [2] = target: chimeric VEGFR1 receptors on HEK293/D9/Flt-IL18Rα/Flt-IL18Rβ clone V3H9 cells (UniProt P17948); assay: cell-based or functional assay; remark: listed apart in the source
# [3] = target: chimeric VEGFR1 receptors on HEK293/D9/Flt-IL18Rα/Flt-IL18Rβ clone V3H9 cells (UniProt P17948); assay: cell-based or functional assay; remark: listed apart in the source
# [4] = target: B2; assay: SPR, Biacore 3000, 25 C; trap captured on anti-VEGFR1 mAb surface, hVEGF165 injected; 1:1 fit
# [5] = target: T2, chimeric VEGFR1 receptors on HEK293/D9/Flt-IL18Rα/Flt-IL18Rβ clone V3H9 cells (UniProt P17948 27-758; Q13478 351-541; P17948 27-758; O95256 378-599, limits assumed); assay: cell-based or functional assay
# T2 sequence (P17948 other isoform, or with tags, fused parts or gaps mutant limits assumed, chain 1 of 2): as the sequence (P17948 other isoform, or with tags, fused parts or gaps mutant limits assumed, chain 1 of 2) above
# T2 sequence (P17948 other isoform, or with tags, fused parts or gaps mutant limits assumed, chain 2 of 2): as the sequence (P17948 other isoform, or with tags, fused parts or gaps mutant limits assumed, chain 2 of 2) above
# [6] = target: B2; assay: SPR, Biacore, 25 C; trap captured on anti-VEGFR1 mAb surface, hVEGF165 injected; 1:1 fit
# Description: (§1) Experimental Procedure. Equilibrium dissociation constants (KD values) for human VEGF₁₆₅ binding to various purified VEGF mini-trap constructs were determined using a real-time surface plasmon resonance biosensor using a Biacore 3000 instrument. All binding studies were performed in 10 mM HEPES, 150 mM NaCl, 3 mM EDTA, and 0.05% v/v Surfactant Tween-20, pH 7.4 (HBS-ET) running buffer at 25° C. The Biacore sensor surface was first derivatized by amine coupling with a monoclonal mouse anti-VEGFR1 antibody to capture VEGF mini-trap constructs. Binding studies were performed on the human VEGF reagent, human VEGF₁₆₅ (human VEGF₁₆₅; SEQ ID NO: 31). Different concentrations of VEGF₁₆₅ reagent, prepared in HBS-ET running buffer (2 nM — 62.5 pM; 2-fold serial dilution for human VEGF₁₆₅), were injected over an anti-VEGFR1-captured VEGF mini-trap construct surface for 1.8 minutes at a flow rate of 90 μL/minute, while the dissociation of VEGF mini-trap constructs bound VEGF₁₆₅ reagent was monitored for 60 minutes in HBS-ET running buffer. Kinetic association (kₐ) and dissociation (kd) rate constants were determined by fitting the real-time sensorgrams to a 1:1 binding model using Scrubber 2.0c curve fitting software. Binding dissociation equilibrium constants (KD) and dissociative half-lives (t½) were calculated from the kinetic rate constants as: […]
# [7] = target: B1; assay: SPR, Biacore 3000, 25 C; trap captured on anti-VEGFR1 mAb surface, hVEGF165 injected; 1:1 fit
# [8] = target: B1; assay: SPR, Biacore 3000, 25 C; trap captured on anti-VEGFR1 mAb surface, hVEGF165 injected
# [9] = target: T1, VEGF110 (hVEGF110, aa 207-318); assay: cell-based or functional assay
# [10] = target: B3; assay: cell-based or functional assay
# [11] = target: B1; assay: SPR, Biacore, 25 C; trap captured on anti-VEGFR1 mAb surface, hVEGF165 injected
# Description: as §1
# [12] = target: T1, VEGF110 (hVEGF110, aa 207-318); assay: cell-based or functional assay; remark: listed apart in the source
# [13] = target: B3; assay: cell-based or functional assay
# [14] = target: B1; assay: cell-based or functional assay
# [15] = target: T1, VEGF110 (hVEGF110, aa 207-318); assay: cell-based or functional assay; remark: listed apart in the source
# [16] = target: B3; assay: cell-based or functional assay
# [17] = target: B1; assay: cell-based or functional assay; remark: listed apart in the source
# [18] = target: B1; assay: SPR, Biacore, 25 C; trap captured on anti-VEGFR1 mAb surface, hVEGF165 injected; 1:1 fit
# Description: as §1
# [19] = target: VEGF121 (hVEGF121, aa 207-327) (human), P15692; assay: cell-based or functional assay
# [20] = target: T2, chimeric VEGFR1 receptors on …; assay: cell-based or functional assay; remark: listed apart in the source
# [21] = target: T2, chimeric VEGFR1 receptors on …; assay: cell-based or functional assay; remark: listed apart in the source
# [22] = target: B3; assay: cell-based or functional assay
# [23] = target: T1, VEGF110 (hVEGF110, aa 207-318); assay: cell-based or functional assay; remark: listed apart in the source
# [24] = target: B1; assay: cell-based or functional assay; remark: listed apart in the source
molecule,measurement,setting,value
"VEGF110 (hVEGF110, aa 207-318) (from UniProt P15692 207-318) (ligand)","EC50 (M), activation of HEK293/D9/Flt-IL18Ra/Flt-IL18Rb (luciferase)",[1],1.14e-11 M
same,"EC50 (M), activation of HEK293/D9/Flt-IL18Ra/Flt-IL18Rb (luciferase)",[2],1.51e-11 M
same,"EC50 (M), activation of HEK293/D9/Flt-IL18Ra/Flt-IL18Rb (luciferase)",[3],2.4e-11 M
B1,Kd,[4],≤ 0.00179 nM
same,"EC50 (M), activation of HEK293/D9/Flt-IL18Ra/Flt-IL18Rb (luciferase)",[5],4.3e-11 M
same,Kd,[6],≤ 0.00127 nM
B2,t½ (dissociative half-life),[7],≥ 19.2 h
same,100 nM hVEGF165 Bound,[8],21 RU
same,"IC50 (M), inhibition of VEGFR1 signaling (luciferase), 20 pM VEGF110",[9],1.53e-11 M
same,"IC50 (M), inhibition of VEGFR1 signaling (luciferase), 20 pM VEGF121",[10],9.64e-12 M
same,2nM hVEGF165 Bound,[11],29 RU
same,"IC50 (M), inhibition of VEGFR1 signaling (luciferase), 20 pM VEGF110",[12],1.15e-11 M
same,"IC50 (M), inhibition of VEGFR1 signaling (luciferase), 20 pM VEGF121",[13],1.26e-11 M
same,"IC50 (M), inhibition of VEGFR1 signaling (luciferase), 20 pM VEGF165",[14],2.09e-11 M
same,"IC50 (M), inhibition of VEGFR1 signaling (luciferase), 20 pM VEGF110",[15],1.53e-11 M
same,"IC50 (M), inhibition of VEGFR1 signaling (luciferase), 20 pM VEGF121",[16],8.94e-12 M
same,"IC50 (M), inhibition of VEGFR1 signaling (luciferase), 20 pM VEGF165",[17],1.18e-11 M
same,t1/2 (dissociative half-life),[18],≥ 19.2 h
"REGN7483^F (homodimer mini-trap, FabRICATOR cleaved from aflibercept) (receptor, here or on the partner: N-linked glycans at N36, N68, N123, N196 (Table C)) SDTGRPFVEMYSEIPEIIHMTEGRELVIPCRVTSPNITVTLKKFPLDTLIPDGKRIIWDSRKGFIISNATYKEIGLLTCEATVNGHLYKTNYLTHRQTNTIIDVVLSPSHGIELSVGEKLVLNCTARTELNVGIDFNWEYPSSKHQHKKLVNRDLKTQSGSEMKKFLSTLTIDGVTRSDQGLYTCAASSGLMTKKNSTFVRVHEKDKTHTCPPCPAPELLG","IC50 (M), inhibition of VEGFR1 signaling (luciferase), 20 pM VEGF121",[19],9.27e-12 M
"REGN7483^R (homodimer mini-trap, recombinant) (receptor, here or on the partner: N-linked glycans at N36, N68, N123, N196 (Table C)) SDTGRPFVEMYSEIPEIIHMTEGRELVIPCRVTSPNITVTLKKFPLDTLIPDGKRIIWDSRKGFIISNATYKEIGLLTCEATVNGHLYKTNYLTHRQTNTIIDVVLSPSHGIELSVGEKLVLNCTARTELNVGIDFNWEYPSSKHQHKKLVNRDLKTQSGSEMKKFLSTLTIDGVTRSDQGLYTCAASSGLMTKKNSTFVRVHEKDKTHTCPPCPAPELLG","IC50 (M), inhibition of VEGFR1 signaling (luciferase), 20 pM VEGF121",[19],8.79e-12 M
B3,"EC50 (M), activation of HEK293/D9/Flt-IL18Ra/Flt-IL18Rb (luciferase)",[20],2.56e-11 M
same,"EC50 (M), activation of HEK293/D9/Flt-IL18Ra/Flt-IL18Rb (luciferase)",[21],2.12e-11 M
same,"EC50 (M), activation of HEK293/D9/Flt-IL18Ra/Flt-IL18Rb (luciferase)",[5],4.4e-11 M
REGN112 (receptor) SDTGRPFVEMYSEIPEIIHMTEGRELVIPCRVTSPNITVTLKKFPLDTLIPDGKRIIWDSRKGFIISNATYKEIGLLTCEATVNGHLYKTNYLTHRQTNTIIDVVLSPSHGIELSVGEKLVLNCTARTELNVGIDFNWEYPSSKHQHKKLVNRDLKTQSGSEMKKFLSTLTIDGVTRSDQGLYTCAASSGLMTKKNSTFVRVHEKDKTHTCPPC,IC50 (read off the curve); VEGFR1 reporter luciferase with 40 pM VEGF121 constant,[22],~1e-10 M
same,IC50 (read off the curve); VEGFR1 reporter luciferase with 20 pM VEGF110 constant,[23],~1e-10 M
same,IC50 (read off the curve); VEGFR1 reporter luciferase with 40 pM VEGF165 constant,[24],~2e-10 M
